Source: PMC11335197

B1: AT1R wildtype C-terminally fused to YPet [not stated] / AT1R wildtype coupled to mTurquoise2 [not stated] (parent)
chain 1: MILNSSTEDGIKRIQDDCPKAGRHNYIFVMIPTLYSIIFVVGIFGNSLVVIVIYFYMKLKTVASVFLLNLALADLCFLLTLPLWAVYTAMEYRWPFGNYLCKIASASVSFNLYASVFLLTCLSIDRYLAIVHPMKSRLRRTMLVAKVTCIIIWLLAGLASLPAIIHRNVFFIENTNITVCAFHYESQNSTLPIGLGLTKNILGFLFPFLIILTSYTLIWKALKKAYEIQKNKPRNDDIFKIIMAIVLFFFFSWIPHQIFTFLDVLIQLGIIRDCRIADIVDTAMPITICIAYFNNCLNPLFYGFLGKKFKRYFLQLLKYIPPKAKSHSNLSTKMSTLSYRPSDNVSSSTKKPAPCFEVE
chain 2: B1 chain 1

What was measured:
[1] = variants of: B1; assay: FLIM (FRET) in living HEK293 cells; conditions: with AT1R wildtype coupled to mTurquoise2, 2-exponential fitting, acceptor AT1R-YPet, read off a plot
[2] = variants of: B1; assay: intensity-based FRET microscopy in living HEK293 cells; conditions: with AT1R wildtype coupled to mTurquoise2; donor AT1R-mTurquoise2 (wildtype), acceptor AT1R-YPet; read off a plot

| donor fluorescence lifetime [1] [ns] | response [2] [%] | Variant |
| --- | --- | --- |
| 3 | 67 | chain 1 MILNSSTEDGIKRIQDDCPKAGRHNYIFVMIPTLYSIIFVVGIFGNSLVVIVIAAYMKLKTVASVFLLNLALADLCFLLTLPLWAVYTAMEYRWPAGNAACKIASASVSFNLYASVFLLTCLSIDRYLAIVHPMKSRLRRTMLVAKVTCIIIWLLAGLASLPAIIHRNVFFIENTNITVCAFHYESQNSTLPIGLGLTKNILGFLFPFLIILTSYTLIWKALKKAYEIQKNKPRNDDIFKIIMAIVLFFFFSWIPHQIFTFLDVLIQLGIIRDCRIADIVDTAMPITICIAYFNNCLNPLFYGFLGKKFKRYFLQLLKYIPPKAKSHSNLSTKMSTLSYRPSDNVSSSTKKPAPCFEVE [chain 1 Y54A F55A F96A Y99A L100A] |
| 3.5 | 35 | chain 1 MILNSSTEDGIKRIQDDCPKAGRHNYIFVMIPTLYSIIFVVGIFGNSLVVIVIYFYMKLKTVASVFLLNLALADLCFLLTLPLWAVYTAMEYRWPFGNYLCKIASASVSFNLYASVFLLTCLSIDRYLAIVHPMKSRLRRTMLVAKVTCIIIWLLAGLASLPAIIHRNVFFIENTNITVCAFHYESQNATLPAGLGATKNAAGFAAPFLIILTSYTLIWKALKKAYEIQKNKPRNDDIFKIIMAIVLFFFFSWIPHQIFTFLDVLIQLGIIRDCRIADIVDTAMPITICIAYFNNCLNPLFYGFLGKKFKRYFLQLLKYIPPKAKSHSNLSTKMSTLSYRPSDNVSSSTKKPAPCFEVE [chain 1 S189A I193A L197A I201A L202A L205A F206A] |
